The source of these data is patent US20220372490A1.

In general, Kd refers to the concentration at which binding is half-saturated.

Assay [1] addresses the mutants (p53 mutants in whole cell lysates of SKBR3, MDA-MB-231, MDA-MB-468 and HCC70, as a group). In words: cell-based or functional assay.
Assay [2] addresses p53WT and the mutants (p53 in whole cell lysates of CAL-51, SKBR3, MDA-MB-231, MDA-MB-468 and HCC70, as a group). In words: IP of all p53 with excess antibody, WB of PEPD in the precipitate against input.
Assay [3] concerns the target p53^WT, p53^R175H, p53^R248Q, p53^R273H and p53^R280K (His-tagged recombinant proteins, as a group). In words: ELISA, His-tagged recombinant proteins. For orientation: An ELISA detects its analyte on a solid surface through an enzyme-linked reagent.

B1: PEPD in human breast cancer cells (endogenous, in cell lysates, cytosol or nuclear extracts), P12955 2-493 (enzyme, UniProt P12955 2-493, looked up)
chain: AAATGPSFWLGNETLKVPLALFALNRQRLCERLRKNPAVQAGSIVVLQGGEETQRYCTDTGVLFRQESFFHWAFGVTEPGCYGVIDVDTGKSTLFVPRLPASHATWMGKIHSKEHFKEKYAVDDVQYVDEIASVLTSQKPSVLLTLRGVNTDSGSVCREASFDGISKFEVNNTILHPEIVECRVFKTDMELEVLRYTNKISSEAHREVMKAVKVGMKEYELESLFEHYCYSRGGMRHSSYTCICGSGENSAVLHYGHAGAPNDRTIQNGDMCLFDMGGEYYCFASDITCSFPANGKFTADQKAVYEAVLRSSRAVMGAMKPGVWWPDMHRLADRIHLEELAHMGILSGSVDAMVQAHLGAVFMPHGLGHFLGIDVHDVGGYPEGVERIDEPGLRSLRTARHLQPGMVLTVEPGIYFIDHLLDEALADPARASFLNREVLQRFRGFGGVRIEEDVVVTDSGIELLTCVPRTVEEIEACMAGCDKAFTPFSGPK
Take B1: the cells killed by PEPD siRNA after 72 h (trypan blue assay), cells without PEPD^G278D in assay [1] lay in the range of 65 to 79%.

B2: PEPD in human breast cancer cells (endogenous, in cell lysates, cytosol or nuclear extracts) (enzyme, UniProt P12955 2-493, looked up)
chain: AAATGPSFWLGNETLKVPLALFALNRQRLCERLRKNPAVQAGSIVVLQGGEETQRYCTDTGVLFRQESFFHWAFGVTEPGCYGVIDVDTGKSTLFVPRLPASHATWMGKIHSKEHFKEKYAVDDVQYVDEIASVLTSQKPSVLLTLRGVNTDSGSVCREASFDGISKFEVNNTILHPEIVECRVFKTDMELEVLRYTNKISSEAHREVMKAVKVGMKEYELESLFEHYCYSRGGMRHSSYTCICGSGENSAVLHYGHAGAPNDRTIQNGDMCLFDMGGEYYCFASDITCSFPANGKFTADQKAVYEAVLRSSRAVMGAMKPGVWWPDMHRLADRIHLEELAHMGILSGSVDAMVQAHLGAVFMPHGLGHFLGIDVHDVGGYPEGVERIDEPGLRSLRTARHLQPGMVLTVEPGIYFIDHLLDEALADPARASFLNREVLQRFRGFGGVRIEEDVVVTDSGIELLTCVPRTVEEIEACMAGCDKAFTPFSGPK
As for B2, in assay [2], the percent of PEPD that binds to p53 is 6 to 9%.

B3: His-tagged recombinant human PEPD (prolidase, peptidase D) (enzyme, UniProt P12955 1-493, looked up)
chain: MAAATGPSFWLGNETLKVPLALFALNRQRLCERLRKNPAVQAGSIVVLQGGEETQRYCTDTGVLFRQESFFHWAFGVTEPGCYGVIDVDTGKSTLFVPRLPASHATWMGKIHSKEHFKEKYAVDDVQYVDEIASVLTSQKPSVLLTLRGVNTDSGSVCREASFDGISKFEVNNTILHPEIVECRVFKTDMELEVLRYTNKISSEAHREVMKAVKVGMKEYELESLFEHYCYSRGGMRHSSYTCICGSGENSAVLHYGHAGAPNDRTIQNGDMCLFDMGGEYYCFASDITCSFPANGKFTADQKAVYEAVLRSSRAVMGAMKPGVWWPDMHRLADRIHLEELAHMGILSGSVDAMVQAHLGAVFMPHGLGHFLGIDVHDVGGYPEGVERIDEPGLRSLRTARHLQPGMVLTVEPGIYFIDHLLDEALADPARASFLNREVLQRFRGFGGVRIEEDVVVTDSGIELLTCVPRTVEEIEACMAGCDKAFTPFSGPK
On to B3, for which the Kd in assay [3] lay within 145 to 185 nM.
